# ± gives the standard deviation of the averaged measurements.
# System: ATP
# Assay: switch fluorescence ratio, 500 uM ATP over buffer (Cy3 cluster intensity, sum of 5 cycles each) (fold (ratio)); higher = stronger signal-on switching upon ATP binding; sequences stand for … in TCGTCGGCAGCGTCAGATGTGTATAAGAGACAGTTTTTTTTTTTTTTTTTTTTTTTTT…TC
# Settings: aptamer strand: ATP DNA aptamer (quencher-CACCTGGGGGAGTATTGCGGAGGAAGG + anchor), 100 nM annealed; ATP concentration: 500 uM
# Summary of the method: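 The fluorescence ratio divides summed target-cycle Cy3 intensity by summed buffer-cycle Cy3 intensity for each cluster and is averaged per switch-domain sequence. Cy3-labelled switching-strand clusters on a modified Illumina MiSeq flow-cell were annealed to 100 nM quencher-labelled ATP aptamer, then imaged in selection buffer and again after 15 min with 500 uM ATP at 22 °C. Five such cycles were run, with NaOH stripping and re-annealing between them, and clusters outside 100-1000 RFU were excluded.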
# 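Note: ATP exposure 15 min at 22 °C before imaging.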
row,Sequence,switch fluorescence ratio
1,ATAGCATGTT,1 ± 0.038
2,ATAGCGGAAT,1.007 ± 0.01
3,ATAGCGGGGG,0.998 ± 0.031
4,ATAGCGTATT,0.998 ± 0.049
5,ATAGCTAACT,1.02 ± 0.022
6,ATAGCTATAA,1.003 ± 0.0029
7,ATAGGAAAGG,0.999 ± 0.035
8,ATAGGAAATC,2.74 ± 0.75
9,ATAGGACGCA,1.265 ± 0.0027
10,ATAGGAGGGT,0.989 ± 0.014
11,ATAGGCATGC,1.06 ± 0.067
12,ATAGGGAGTA,0.979 ± 0.061
13,ATAGGGATTC,1.02 ± 0.038
14,ATAGGGCTTG,0.9746 ± 0.005
15,ATAGGGGA,0.989 ± 0.018
16,ATAGGGGAAA,0.987 ± 0.024
17,ATAGGGGCAT,1 ± 0.025
18,ATAGGGGCGC,1 ± 0.047
19,ATAGGGGGAT,0.993 ± 0.015
20,ATAGGGGGGG,1.03 ± 0.025
21,ATAGGGTGGG,1 ± 0.022
22,ATAGGTATTC,0.976 ± 0.026
23,ATAGGTCTCG,1 ± 0.031
24,ATAGGTGGTT,0.994 ± 0.019
25,ATAGGTTCGT,0.99 ± 0.012

row,Sequence,switch fluorescence ratio
1,ATAGGTTGTT,0.973 ± 0.016
2,ATAGGTTTTG,0.9864 ± 0.004
3,ATAGTAAAAC,1.05 ± 0.02
4,ATAGTAACAC,1.06 ± 0.038
5,ATAGTAGGTC,1.048 ± 0.0015
6,ATAGTATCTT,1 ± 0.021
7,ATAGTATGTA,1.01 ± 0.031
8,ATAGTCCTGG,0.963 ± 0.019
9,ATAGTGGACA,0.9867 ± 0.0019
10,ATAGTGGGGT,0.987 ± 0.021
11,ATAGTGGGTG,0.997 ± 0.037
12,ATAGTGGTGC,0.958 ± 0.067
13,ATAGTGTTGA,1.03 ± 0.011
14,ATAGTTAAAT,0.943 ± 0.089
15,ATAGTTCTGG,0.992 ± 0.018
16,ATAGTTGGA,0.953 ± 0.019
17,ATAGTTTAGG,1.016 ± 0.0076
18,ATATAACATT,1.05 ± 0.018
19,ATATAAGTAG,1.03 ± 0.014
20,ATATACTAAT,1.02 ± 0.038
21,ATATACTACA,1.06 ± 0.022
22,ATATAGAATA,1.03 ± 0.024
23,ATATAGGGGC,1.02 ± 0.046
24,ATATAGGTTG,0.974 ± 0.051
25,ATATATGCCG,0.985 ± 0.044

row,Sequence,switch fluorescence ratio
1,ATATATGTCG,1.07 ± 0.049
2,ATATATGTGG,0.981 ± 0.057
3,ATATATTGAG,0.995 ± 0.019
4,ATATATTGCG,1.016 ± 0.0031
5,ATATATTGGT,0.9922 ± 0.0046
6,ATATATTTAT,1.022 ± 0.0085
7,ATATCAAGGA,1 ± 0.029
8,ATATCAGGGC,0.961 ± 0.034
9,ATATCCAATA,0.99 ± 0.036
10,ATATCCGACA,1.054 ± 0.0056
11,ATATCCTAGT,0.987 ± 0.029
12,ATATCCTTGG,0.984 ± 0.026
13,ATATCGGGGT,1.001 ± 0.0045
14,ATATGAAGGA,0.993 ± 0.013
15,ATATGAAGGT,0.9893 ± 0.0047
16,ATATGGCTTT,1.02 ± 0.013
17,ATATGGGTAC,1.034 ± 0.0052
18,ATATGGGTTC,1 ± 0.026
19,ATATGGTCGT,0.998 ± 0.017
20,ATATGGTTGG,0.958 ± 0.016
21,ATATGTAAAC,1 ± 0.047
22,ATATGTATGC,0.97875 ± 3.4e-05
23,ATATGTGGTA,1.01 ± 0.031
24,ATATGTTAGT,0.988 ± 0.011
25,ATATTAAAAC,0.988 ± 0.034

row,Sequence,switch fluorescence ratio
1,ATATTACTGC,1.07 ± 0.02
2,ATATTAGGGA,1 ± 0.0079
3,ATATTAGTTA,0.997 ± 0.05
4,ATATTCCGTT,0.968 ± 0.018
5,ATATTGAAGG,0.981 ± 0.012
6,ATATTGACAC,1.08 ± 0.012
7,ATATTGGCTA,1 ± 0.0039
8,ATATTTAAGG,0.995 ± 0.029
9,ATATTTACCG,1.04 ± 0.011
10,ATATTTAGAG,0.992 ± 0.027
11,ATATTTAGTT,1.01 ± 0.051
12,ATATTTGCCA,1.02 ± 0.021
13,ATATTTTTT,0.9892 ± 0.0038
14,ATCAAAACGT,1.04 ± 0.043
15,ATCAAAGGTG,1.404 ± 0.0027
16,ATCAAATATC,1.036 ± 0.0086
17,ATCAACACCG,1.06 ± 0.034
18,ATCAACGGTG,1.01 ± 0.044
19,ATCAACGTTA,1.07 ± 0.031
20,ATCAAGACAG,1.01 ± 0.033
21,ATCAAGAGGG,1.01 ± 0.014
22,ATCACAGGTT,1.07 ± 0.0082
23,ATCACGGGAT,1.015 ± 0.0039
24,ATCACTTTAT,1.38 ± 0.51
25,ATCAGAATCC,1.04 ± 0.013

# Source: the supplement of paper PMC10126150
